Test results as given in patent US20190000964A1.

Each binder was assayed against human CCR5 receptor (hCCR5) (human), P51681 (assay: inhibition of gp120BaL/sCD4 binding to Cf2Th/synR5 cells (FIG. 4A)).
Sequence of human CCR5 receptor (hCCR5) (human), P51681 (P51681 whole entry): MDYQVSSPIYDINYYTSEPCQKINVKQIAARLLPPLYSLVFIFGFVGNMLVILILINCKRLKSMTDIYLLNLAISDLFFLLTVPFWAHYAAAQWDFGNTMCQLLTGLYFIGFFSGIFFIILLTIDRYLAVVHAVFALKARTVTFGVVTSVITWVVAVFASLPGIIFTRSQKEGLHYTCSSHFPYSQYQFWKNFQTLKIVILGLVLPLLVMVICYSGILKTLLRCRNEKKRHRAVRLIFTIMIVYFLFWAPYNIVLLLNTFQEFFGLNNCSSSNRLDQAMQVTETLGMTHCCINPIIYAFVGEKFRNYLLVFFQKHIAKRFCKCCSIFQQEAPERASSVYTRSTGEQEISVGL
ASTTTNYT (modifications not checked) [DAPTA (Dala1-peptide T-amide)] was tested, and the IC50 was 0.055 nM.

Each binder was assayed against human CCR5 receptor (hCCR5) (human), P51681 (assay: inhibition of gp120CM235/sCD4 binding to Cf2Th/synR5 cells (FIG. 4B)).
ASTTTNYT (modifications not checked) [DAPTA (Dala1-peptide T-amide)] was tested, and the IC50 was 0.32 nM and the percent inhibition of specific binding was > 80%.

The binders below were run against human CCR5 receptor (hCCR5) (human), P51681 (assay: inhibition of gp120CM235/sCD4 binding to GHOST CD4.CCR5 cells (FIG. 4C)).
For ASTTTNYT (modifications not checked) [DAPTA (Dala1-peptide T-amide)], the IC50 was 0.051 nM.

These binders were tested against human CCR5 receptor (hCCR5) (human), P51681 (assay: inhibition of gp120/sCD4 complex binding to CCR5-expressing Cf2Th cells by competing peptide).
NSNYS (modifications not checked) gave an EC50 of 0.5 nM. With NTSYR (modifications not checked) the EC50 was 0.1 nM. SSEYR (modifications not checked) showed an EC50 of 0.3 nM. NNRYR (modifications not checked) showed an EC50 of 0.2 nM. In the case of SSTYR (modifications not checked), the EC50 is reported as 0.1 nM. For NSEYR (modifications not checked), the EC50 was 0.08 nM. NSSYR (modifications not checked) was tested, and the EC50 was 0.04 nM. For TSNYS (modifications not checked), the EC50 was 0.2 nM. In the case of TTSYT (modifications not checked), the EC50 is reported as 0.05 nM. NSSYT (modifications not checked) was tested, and the EC50 was 0.2 nM. With TISYR (modifications not checked) the EC50 was 0.4 nM. In the case of YSSYR (modifications not checked), the EC50 is reported as 0.6 nM. TTSYR (modifications not checked) was tested, and the EC50 was 0.1 nM.
